The values that follow come from patent US12728152B2, “Growth and differentiation factor 15 for treatment of proliferative vitreoretinopathy therapy” (The Board of Trustees of the Leland Stanford Junior …, priority 2020, dated 2026).

In one assay the test system is ESC-NPCs. Kind of assay: GDF-11-induced upregulation of EMT marker Fibronectin in ESC-NPCs (immunofluorescence). Format: cell-based. The settings on record: ESC-derived NPCs. The protocol: FIG. 1. Smad2 inhibition (A) or simultaneous culture with GDF-15 (B) blocks GDF-11-induced upregulation of EMT marker Fibronectin in ESC-NPCs. Scale bar=100 μm.
(A) ESC-derived NPCs were pre-treated with DMSO or Smad2 inhibitor SB431542 (10 μM) for 1 h and then co-treated with PBS or GDF-11 (50 ng/ml) for another 7 days before harvest. (B) SC-derived NPCs were pre-treated with PBS or GDF-15 (50 ng/ml) for 1 h and then co-treated with PBS or GDF-11 (16.7 ng/ml) for another 7 days before harvest. GDF-15 was added daily while SB431542 and GDF-11 was only added one time in the beginning. Nucleus (DPAI) and EMT (Fibronectin) marker were then detected by immunofluorescence.

The subject of a further assay is ARPE-19 cells. The assay is described as follows: TGFβ-2-induced upregulation of phosph-Smad2 and EMT marker Fibronectin in ARPE-19 cells (Western blot). Format: cell-based, Human. Conditions: N=3, P<0.05. Here is the method:
FIG. 2: Simultaneous culture with GDF-15 reduces TGFβ-2-induced upregulation of phosph-Smad2 (A) and EMT marker Fibronectin (B) in ARPE-19 cells. (N=3, *P<0.05).
(N=3, *P<0.05). Human adult retinal pigment epithelial cells (ARPE-19) were pre-treated with PBS or GDF-15 (50 ng/ml) for 1 h and then co-treated with PBS or TGFβ-2 (1 ng/ml) for another hour (A) or 2 days (B) before harvest. For Fibronection detection, GDF-15 was added daily while TGFβ-2 was only added one time in the beginning. GAPDH (loading control), p-Smad2 and Fibronectin proteins were then detected by Western blot.

As to `NC(=O)c1ccc(-c2nc(-c3ccc4c(c3)OCO4)c(-c3ccccn3)[nH]2)cc1` [SB431542, reference compound], in the assay with ESC-NPCs (SB431542 10 μM pre-treated 1 h, then co-treated with GDF-11 (50 ng/ml) 7 days), the “GDF-11-induced upregulation of EMT marker Fibronectin” value was “blocks”.

B1: GDF-15: secreted ligand of the TGF superfamily of proteins; human GDF-15 protein, SEQ ID NO: 1 (protein, listed as Homo sapiens)
chain: MPGQELRTVNGSQMLLVLLVLSWLPHGGALSLAEASRASFPGPSELHSEDSRFRELRKRYEDLLTRLRANQSWEDSNTDLVPAPAVRILTPEVRLGSGGHLHLRISRAALPEGLPEASRLHRALFRLSPTASRSWDVTRPLRRQLSLARPQAPALHLRLSPPPSQSDQLLAESSSARPQLELHLRPQAARGRRRARARNGDHCPLGPGRCCRLHTVRASLEDLGWADWVLSPREVQVTMCIGACPSQFRAANMHAQIKTSLHRLKPDTVPAPCCVPASYNPMVLIQKTDTGVSLQTYDDLLAKDCHCI
Take B1: in the assay with ESC-NPCs (GDF-15 50 ng/ml pre-treated 1 h (added daily), then co-treated with GDF-11 (16.7 ng/ml) 7 days), the “GDF-11-induced upregulation of EMT marker Fibronectin” value is recorded as “blocks”. In the assay on ARPE-19 cells (GDF-15 50 ng/ml pre-treated 1 h (added daily), then co-treated with TGFβ-2 (1 ng/ml) 2 days), the “TGFβ-2-induced upregulation of EMT marker Fibronectin” value is reported as “reduces”. Besides, the “TGFβ-2-induced upregulation of phosph-Smad2” value with ARPE-19 cells (GDF-15 50 ng/ml pre-treated 1 h, then co-treated with TGFβ-2 (1 ng/ml) another hour) is given as “reduces”.
